{
  "source": "paper PMC1764428",
  "about": "“Secretion and properties of a hybrid Kluyveromyces lactis-Aspergillus niger β-galactosidase” (Microbial Cell Factories, 2006)",
  "substrate": "O=[N+]([O-])c1ccccc1O[C@@H]1O[C@H](CO)[C@H](O)[C@H](O)[C@H]1O",
  "assay": "o-nitrophenol release, Lineweaver-Burk",
  "type": "biochemical, Kluyveromyces lactis",
  "settings": "crude extract (30 μg protein); buffer Z with 1.6 mM MgSO4; ONPG 2-12 mM",
  "data": [
    {"protein": "native K. lactis β-galactosidase (pSPGK1-LAC4) (Kluyveromyces lactis NRRL Y-1140) (protein, expressed in K. lactis MW190-9B (lac4-8); crude cell-free extract) MSCLIPENLRNPKKVHENRLPTRAYYYDQDIFESLNGPWAFALFDAPLDAPDAKNLDWETAKKWSTISVPSHWELQEDWKYGKPIYTNVQYPIPIDIPNPPTVNPTGVYARTFELDSKSIESFEHRLRFEGVDNCYELYVNGQYVGFNKGSRNGAEFDIQKYVSEGENLVVVKVFKWSDSTYIEDQDQWWLSGIYRDVSLLKLPKKAHIEDVRVTTTFVDSQYQDAELSVKVDVQGSSYDHINFTLYEPEDGSKVYDASSLLNEENGNTTFSTKEFISFSTKKNEETAFKINVKAPEHWTAENPTLYKYQLDLIGSDGSVIQSIKHHVGFRQVELKDGNITVNGKDILFRGVNRHDHHPRFGRAVPLDFVVRDLILMKKFNINAVRNSHYPNHPKVYDLFDKLGFWVIDEADLETHGVQEPFNRHTNLEAEYPDTKNKLYDVNAHYLSDNPEYEVAYLDRASQLVLRDVNHPSIIIWSLGNEACYGRNHKAMYKLIKQLDPTRLVHYEGDLNALSADIFSFMYPTFEIMERWRKNHTDENGKFEKPLILCEYGHAMGNGPGSLKEYQELFYKEKFYQGGFIWEWANHGIEFEDVSTADGKLHKAYAYGGDFKEEVHDGVFIMDGLCNSEHNPTPGLVEYKKVIEPVHIKIAHGSVTITNKHDFITTDHLLFIDKDTGKTIDVPSLKPEESVTIPSDTTYVVAVLKDDAGVLKAGHEIAWGQAELPLKVPDFVTETAEKAAKINDGKRYVSVESSGLHFILDKLLGKIESLKVKGKEISSKFEGSSITFWRPPTNNDEPRDFKNWKKYNIDLMKQNIHGVSVEKGSNGSLAVVTVNSRISPVVFYYGFETVQKYTIFANKINLNTSMKLTGEYQPPDFPRVGYEFWLGDSYESFEWLGRGPGESYPDKKESQRFGLYDSKDVEEFVYDYPQENGNHTDTHFLNIKFEGAGKLSIFQKEKPFNFKISDEYGVDEAAHACDVKRYGRHYLRLDHAIHGVGSEACGPAVLDQYRLKAQDFNFEFDLAFE", "values": [
      {"measurement": "Km", "value": 1500, "unit": "µM"}
    ]}
  ]
}
